The DeepSol protein solubility set

Assay: soluble on expression in E. coli; label from the status in PepcDB or PDB records

Sequence	soluble on expression in E. coli
MAASTSSSSSSSSSSLSSPSPCTWRYMTFTSFHGPDVRNTFLSHLRKQFNTNGITMFDDQRMERSQTLAPTLTQAIRESKIYIVLLSKNYASSSWCLDELLEILNCKEKRGQRVMTIFYGVNPSDVRKQTGEFGIAFNETCARKTEEERRKWSHALTCVGNITGVHVQDRDDEANMIEKIATDVSEKLNATESKDFDEMVGIKAHLTKIESLLSLDYDKVKIVGISGPAGIGKSTIARALHNLLSSSFHLSCFMENLISQSNPHSSLEYSSKLSLQEQLLSQVLNEKDIRIRHLGAIQERLHDQRVLIILDDVTSLEQLEVLANIKWYGPGSRIIVITKKKDILVQHGICDIYHVGFPTDADALKIFCLSAYRQTSPPDGSMKIHECEMFIKICGNLPLHLHVLGSALRGRSYGRVQSLCNLVSLADFV	not soluble
MAATFPLSAGTYSINGRKYRKTAYNLKADTSFDLNTDTTFADTPDIYEDEASADCFAPPGLPELRKRAAKAKIVAKAVETSSKEPEPTEDDRIKVIGGKKWISSINVAPCFIGKLIGTNRRTLNSLENETQCRVKTPRRNENIACEISSIVSLECVQRCLDRLEIFIDDSRKTARVNHFVALPCDQHEVQENFNIFKQMVMESDHFDSSCKNSQLFTKPTRLHLTLSVARIFDDMDLQKAVGAFEILEKEIRQIKDSKPLIADIQGIDMMNDDPSQVFVLYAKVKGDKVQEVANYVNRRLIELGVSSKNEHDNGSDAVKLHMTLMNSRYVTQSEKSGKSKEAALFDAKQVLEDLKDSYFGTFELKEVNFDVKKFKQRI	not soluble
MAATITDDIVATVLESIEEKSYEDEKEKAGMIKDEANQFFKDQVYDVAADLYSVAIEIHPTAVLYGNRAQAYLKKELYGSALEDADNAIAIDPSYVKGFYRRATANMALGRFKKALTDYQAVVKVCPNDKDARAKFDECSKIVRRQKFEAAISTDHDKKTVAETLDINAMAIEDSYDGPRLEDKITKEFVLQLIKTFKNQQKLHKKYAFKMLLEFYNYVKSLPTMVEITVPTGKKFTICGDVHGQFYDLCNIFEINGYPSETNPYLFNGDFVDRGSFSVETIFTMIGFKLLYPNHFFMSRGNHESDVMNKMYGFEGEVKAKYTQQMCDMFTETFCWLPLCHLINEKIFVCHGGLFKEDGVTLEDIRKTDRNRQPPDEGIMCDLLWSDPQPINGRSPSKRGVGCQFGPDVTSKWCETNGIEYVVRSHEVKPEGYEMHHNGQCFTVFSAPNYCDQMNNKGAFITITGDNLTPRFTPFDAVPHPKLPPMAYANSLFGFN	not soluble
MAAVDSFQLLYREIARSCSGYVETLALVGACYMASKTVIFMRDCYSLIRLYFVPRLVRHRDLSQQYGQWAIICGASEAIAKAYAEELARHGICVILISKDLSSVSDTARLISNNYGVEAICIEADFNQGPSACKPIKDAISSKDIGFIVNSFDGTLEISQNFLELSESVLWGTIDRNIAATTLVTRLALPAMMERGRGAVVNISSGHCFHPIPRKAAFSASTAFLDNFSRSLQYEYGDQGVFVQSLLPFRVASQRPEGSAPPASWLVPSPQVYASHALSTLGISHRTTGYWPHSMQLGLVKMMPEWVWMLGSRVFTMAT	soluble
MACQTGIRANAALRNALNLGKQAKLRLIKIVVNNEEMTPNYEFAGTANWRDDWRACLPDCVDAYEPCFILFRLNTITEWVLITFVDDRAPVREKMLLAATCATFKSEFGQCYIEHEKHVTDLKDLTLNAFEAWLKAKTELGPMSEVERELHNAQQERAAIAHAGPQHMKGVAFPVDRNAEEALRQLASQKLSFVQLSVDTLNEAIKLEGTLESLEPSQLASKVPRDKPRYTFYNFDHTWEGVPQQCTLFIYSLPSSGSSIKERMLYSSCKGPFLSAAQNQYGVVITNKMEVDARDDLSEKALLEVIHPLPVEAPKQFSRPAPPRAGPRRITKV	not soluble
MADDDDRVDISNETLASLVGRPMSSSGNRIRATPSRRRLVSAPTNPRWSPSADDRRLFSYVSSMRSDSNSSSKSPSPPSAKMSKRPNGPYSVRKYQPRGSPPSDGSDKIHRFGESPTPGGVGGVFGTELDDLIIDELMGMEDDQRMRPGATRPMTIGGEKTMSMARPIPGASSRAGSGHSGSPITIPNAMSNNFRQVVSSSAPTSSIDIEKMIGAVSNGGGNSGGDNDPEDYYRDRRKKDIHNMIERRRRYNINDRIKELGQMLPKNTSEDMKLNKGTILKASCDYIRVLQKDREQAMKTQQQQKSLESTAHKYADRVKELEEMLARQGVQVPPSHLPPIPKVIERPIKQEIDESPPNHTPTGSFVSSSGFLSEVTNNTAAMQITSPNDSRPNNFMNNSAPSDSFFSVGSASPPDYRTSSGTASWKLPGSNAFSDLMMDDLNPMMNGDPLISSAGAHPSPHFHSSQMSPDIHWDASGFSPDPINTQQSNSGHYHMDFS	not soluble
MADFAARLNKLFDTVHPPGRKPHTNAEVAAALIADGHQISKPYISQLRSGQRTNPSDETVAAFARFFKVKPDYFFNDIYAAKIDHDLELLSQLQGYGLRKLSSRAFDLSEESQNLLTTMAEKLRASEGLPEVPPDASR	not soluble
MADFKVLSSQDIMWALHELKGHYAITRKDFESHQHMENLTSQDEVPRDTRPFLMPLKNGRSYHQKPVEKGKREKK	not soluble
MADKSAYMSAGGYGSGYMGANASSSGYAREDYAQGGAGGSGNQNQGGSGGNTNPGGQVFKARTDQSCYLGP	not soluble
MADQHPTAQRPIDAHGIIGDMRSAALVDDQGSIDFFCWPEFDSPSIFCSLLDSPAAGIFELAPVLADARRQQIYLPDSNVLQTRWLGTEAVVEVTDLLTIDDDPEQLPLLIRRVRVVSGQATLRLHCAPRLDYLEHHHHHH	not soluble
MADRPQLSIIIPVFNEAKILQKSPTENTRQYLGQFTEDQRIEILIIDGGSQDSTVELCQTYADSLPLHVFISPQTGRANQMNYGASLSRSEWLLFLHLDSILPHDFFTQIAEILTNSSYIAGAFGLTIDLPGRPYRWLEKLILWRSIYAQKPYGDQGLFIQRQDFQQLGGFADLPIMEDYQFMQKLGKQRGKVAIAGGKVITSGRRWQKLGLLRTTAINQLVVAGYHLGVSPQTLVHWYRGAKPNRGNRPNSDGTSCLEHHHHHH	soluble
MADRRNLFFFYGDDKATLVEKMKPIYRILEENGFTILDHPKNANAIVSVGDDATFLQAVRKTGFREDCLYAGISTKDEISFYCDFHIDHVDTALQEITKNEIEVRKYPTIQVDVDGSTSFHCLNEFSLRSSIIKTFVVDVHVDDLYFETFRGDGLVVSTPTGSTAYNKSLHGAVVDPLIPCFQVSELASLNNNTYRTLGSPFILNHERTLTLKLRPDGNDYPVIGMDNEALSIKQVEKAVVRLSDKQIKTVKLKNNSFWEKVQRTFLLEHHHHHH	soluble
MADSTPILFDRRLLAARLHRAAALGPAPFLLDRVAEEMDERLHAVLRDFTEVADLWTPGGLKLQRFPKLAHLAVDPSGSEALPFAPGSLDLVVSALALQFANDLPGVLAQLRRALKPDGLLLAALTGGETLTELRQAFASAEAEIEGGVSPRVAPAADLRDLGALLQRAGFALPVTDVDRVVVRYDHAFALMQDLRRMGATNVLIERRRTPLRRATLTRMAQIYADRFSDPDGRIRATFEIVWLSGWSPHESQQQPLKPGSAKVSLEEAVRGKRLEHHHHHH	not soluble
MADWVTGKVTKVQNWTDALFSLTVHAPVLPFTAGQFTKLGLEIDGERVQRAYSYVNSPDNPDLEFYLVTVPDGKLSPRLAALKPGDEVQVVSEAAGFFVLDEVPHCETLWMLATGTAIGPYLSILRLGKDLDRFKNLVLVHAARYAADLSYLPLMQELEKRYEGKLRIQTVVSRETAAGSLTGRIPALIESGELESTIGLPMNKETSHVMLCGNPQMVRDTQQLLKETRQMTKHLRRRPGHMTAEHYW	soluble
MADYYGLFTSDTRSVSDGESDGERRLRRSRRKRGGGRFRPYSPDYSDDEKTKPTKKNQKRPDKQDRFGMAPPNSTQFLLEDREARADAEFENEQKFEAAERRRVRTMSGSYEHMRPAYWCTIEPATTTADFGSDDNNDLDSTSGESEADREMEREFETDYLEVKRERIQSMTRSQLAAELLERDQDTQVLTRELGSKETENRHLRSLLSAHGISPDEPVTSTTAIVVGQSKSPVVAN	not soluble
MAEDFSVVVLASDLGIDARPFLTRSDDVDEQENWHDCPQYLGDEDFSDLDLLQFFTLQGLDRSGNRIFRIVGKYFPARVVSAERLKKYISQKISNQCPEGPLCLVYMHSTVQKDDNSPGITILRWIYEDLPSDIKDRLQLVYFIHPGLRSRLVIATLGRLLLSGGLYWKIKYVSRLQYLWEDIKKGEVEIPDFVKNHDNVLEHRPLTDYGIEPDPFQLSEVQSSSFSLNRYENRWVS	soluble
MAEDIFRVATVEDAPEFLELLSSAFKSVKELGIDWPSTNADLAMVTENIVNSSAFVLERNGKLISTITVRFPWESSSPPSKYPFVWWFATAPELAGQGIGDKLLTYVEERVLRDTLKAPALTLGTSARKHPWLLDMYLRRGYEVYFEHEEDGDVGVMMRKILIPEKFDATLLGIPSWT	not soluble
MAEELVLERCDLELETNGRDHHTADLCREKLVVRRGQPFWLTLHFEGRNYQASVDSLTFSVVTGPAPSQEAGTKARFPLRDAVEEGDWTATVVDQQDCTLSLQLTTPANAPIGLYRLSLEASTGYQGSSFVLGHFILLFNAWCPADAVYLDSEEERQEYVLTQQGFIYQGSAKFIKNIPWNFGQFQDGILDICLILLDVNPKFLKNAGRDCSRRSSPVYVGRVGSGMVNCNDDQGVLLGRWDNNYGDGVSPMSWIGSVDILRRWKNHGCQRVKYGQCWVFAAVACTVLRCLGIPTRVVTNYNSAHDQNSNLLIEYFRNEFGEIQGDKSEMIWNFHCWVESWMTRPDLQPGYEGWQALDPTPQEKSEGTYCCGPVPVRAIKEGDLSTKYDAPFVFAEVNADVVDWIQQDDGSVHKSINRSLIVGLKISTKSVGRDEREDITHTYKYPEGSSEEREAFTRANHLNKLAEKEETGMAMRIRVGQSMNMGSDFDVFAHITNNTAEEYVCRLLLCARTVSYNGILGPECGTKYLLNLTLEPFSEKSVPLCILYEKYRDCLTESNLIKVRALLVEPVINSYLLAERDLYLENPEIKIRILGEPKQKRKLVAEVSLQNPLPVALEGCTFTVEGAGLTEEQKTVEIPDPVEAGEEVKVRMDLVPLHMGLHKLVVNFESDKLKAVKGFRNVIIGPA	soluble
MAEEQQNSDQSNGGNVIPTPEEVATFLHKTVEEGGWEKCWEEEITPWDQGRATPLIVHLVDTSSLPLGRALVPGCGGGHDVVAMASPERFVVGLDISESALAKANETYGSSPKAEYFSFVKEDVFTWRPTELFDLIFDYVFFCAIEPEMRPAWAKSMYELLKPDGELITLMYPITDHVGGPPYKVDVSTFEEVLVPIGFKAVSVEENPHAIPTRKGKEKLGRWKKIN	not soluble
MAEIEKTVLVGYSASQMFRLVDTVENYPDFLPWCSGASMKLMEDNETAQATVHIDYHHIKHSFTTKNTRHPPELIKMELVEGPFEKLNGYWRFIPLSENACKIEFQLHYTFSHKLLEKLVGPVFYVIANNFVEAFVEQAEKIYGPSILEHHHHHH	soluble
MAEILERSGYLVKVRVEVPADRVKASYEALLKDLASRVRVPGFRPGKAPLKVVEARLGREALLQDLKERLVEETYPEAVRELGLSPVAARVVEQDLSEGEGFRYVAEVENYPEVRLPDWRSFALEVSPPEVTEEMVEKALEELRQRYAELVPVEREAQEKDHLFVRTEEGAEFPIDLAKALPHVREALLGKKAGDVVMVPVLNDKGEKVREVRTEVLEVKTLKLPELDEEFAKTLEAESLEDLKNRVRESLKRQAERAYEEARERAFLEKLAEGLEVEIPPSMLRAEERHLLEHLAEDLYRQGISLEAYLEALKEKGELEKFQEDLRKEAEKRVRIALAREKLAEELNPEVSEEEWQAYLQAAARAYGVAVQDLRRQFGEEGLARLKERLRQDKAVQEALKALG	soluble
